Series [1] can be described thus: kinetic analysis, non-endpoint assay at 23° C. The conditions noted are these: standard error in parenthetical. In kind it is biochemical. The procedure, abridged: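 Purified C-terminal 6-His-tagged recombinant enzymes expressed in bacteria; quizalofop-P or 2,4-D as substrate. Vmax reported as specific activity (umol herbicide product mg enzyme-1 min-1) and Km as mM herbicide substrate, with standard error.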

The format of series [2] is physicochemical. The conditions noted are these: buffer; for T1/2, temperature where 50% of the protein was unfolded, Buffer: pH 7.5. The procedure, abridged:
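Thermal shift assay: purified enzyme in 30 mM Tris pH7.5, 150 mM NaCl, with or without 50 uM Fe2+ and 1.0 mM aKG. Unfolding followed by SYPRO orange fluorescence from 10° C. to 95° C. in 0.5° C. steps; melting temperature (T1/2) taken from the curve.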

A short description of series [3]: enzyme activity assay at 23° C. with purified enzyme. In kind it is biochemical. The conditions noted are these: for maximum activities for all four substrates compared with the wild-type enzyme: haloxyfop, fenoxaprop, fluazifop and dichlorprop; for maximum activity as a percentage of the wild-type enzyme's activity, Haloxyfop: purified enzyme; for maximum activity as a percentage of the wild-type enzyme's activity, Haloxyfop / maximum activity as a percentage of the wild-type enzyme's activity, Dichlorprop / maximum activity as a percentage of the wild-type enzyme's activity, Fenoxaprop / maximum activity as a percentage of the wild-type enzyme's activity, Fluazifop: wild-type set at 100%. The protocol:
The enzyme activity of MON-HT protein variants with haloxyfop, fenoxaprop, fluazifop, and dichlorprop as substrates was determined using the enzyme activity assay conducted at 23° C. with purified enzyme. The activity was recorded as the maximum activity as a percentage of the wild-type enzyme's activity, which was set at 100%.

For a further series, the system named is F1 hybrid maize plants. Description: efficacy field trial for 2,4-D tolerance. In kind it is in vivo. The conditions noted are these: scale 0 to 100, with CTP unless label says no CTP; for average injury rating, V4 Growth Stage, 2x 2,4-D / average injury rating, V8 Growth Stage, 2x 2,4-D: 2 lb ae/acre at VE-V2, V4, V8; for average injury rating, V4 Growth Stage, 4x 2,4-D / average injury rating, V8 Growth Stage, 4x 2,4-D: 4 lb ae/acre at VE-V2, V4, V8; for average injury rating, V4 Growth Stage, 8x 2,4-D / average injury rating, V8 Growth Stage, 8x 2,4-D: 8 lb ae/acre at VE-V2, V4, V8; for average injury rating, V4 Growth Stage, 16x 2,4-D / average injury rating, V8 Growth Stage, 16x 2,4-D: 16 lb ae/acre at VE-V2, V4, V8. The protocol:
Separate trait efficacy field trials for quizalofop-P and 2,4-D were conducted at two locations cach with F1 hybrid transgenic plants produced by crossing an inbred plant containing maize event MON89034 with an R1 plant containing MON-HT55 (with a CTP), MON-HTI (with or without a CTP), MON-HT2 (with or without a CTP), MON-HT3 (with a CTP), MON-HT4 (with a CTP), MON-HT5 (with a CTP), MON-HT6 (with a CTP), or MON-HT7 (with a CTP). Transgenic F1 hybrid plants containing maize events NK603×MON89034 were used for comparison as a control.
In the efficacy field trial for 2,4-D tolerance, one of four herbicide treatments was used: (1) 2,4-D amine at 2 lb ac/acre (2×) plus 0.25% v/v non-ionic surfactant (NIS) applied to VE to V2 followed by V4 followed by V8; (2) 2,4-D amine at 4 lb ac/acre (4×) plus 0.25% v/v NIS applied to VE to V2 followed by V4 followed by V8; (3) 2,4-D amine at 8 lb ac/acre (8×) plus 0.25% v/v NIS applied to VE to V2 followed by V4 followed by V8 maize; or (4) 2,4-D amine at 16 lb ac/acre (16×) plus 0.25% v/v NIS applied to VE to V2 followed by V4 followed by V8. Plots were visually rated as above. Tables 14 and 15 show the average injury ratings after herbicide application at V4 or V8 growth stage, respectively.

The mark [4] stands for this setting: 23° C., purified His-tagged protein.
[5] abbreviates: 23° C., purified His-tagged protein, read-out: Km Quizalofop.
The mark [6] stands for this setting: NDB = activity not robust enough for kinetic characterization.

Where two headings read alike, the source gives them in different places.

B1: MON-HT3: engineered oxygenase protein, amino acid sequence SEQ ID NO:22 (protein)
chain: MHAALSPLSQRFERIAVQPLTGVLGAEITGVDLREPLDDSTWNEILDAFHTYQVIYFPGQAITNEQHIAFSRRFGPVDPVPLLKSIEGYPEVQMIRREANESGRVIGDDWHTDSTFLDAPPAAVVMYAKEVPPYGGDTLFASMYTAWETLSPTMQATIEGLNVVHSATRVFGSLYQAQNRRFSNTSVKVMDVDAGDRETVHPLVVTHPETGRKGLYVNQVYCQRIEGMSEKESEPLLSFLFAHATKPEFTCRVRWQEGQVLVWDNLCTQHFAVPDYAGKFRYLTRTTVGGVRPAR
On to B1, for which the “Vmax Quizalofop” value in series [1] (setting [4]) is listed as 0.77 (−0.04) umol herbicide product mg enzyme-1 min-1. Besides, the Km in series [1] (setting [5]) turned out to be 380 µM. Moreover, the “Vmax 2,4-D” value in series [1] (setting [6]) is recorded as 0.10 (−0.01) umol herbicide product mg enzyme-1 min-1. Also, the Km in series [1] (NDB = activity not robust enough for kinetic characterization, read-out: Km 2,4-D) amounted to 270 µM. In series [2], the “T1/2, temperature where 50% of the protein was unfolded, Buffer plus Fe2+ and aKG” value amounted to 48 °C; the “T1/2, temperature where 50% of the protein was unfolded, Buffer” value amounted to 46 °C. Besides, in series [3], the “maximum activities for all four substrates compared with the wild-type enzyme” value is on record as “lower than, or equal to”; the “maximum activity as a percentage of the wild-type enzyme's activity, Haloxyfop” value (from here on “maximum activity as a percentage … Haloxyfop”) was determined as 67%; the “maximum activity as a percentage of the wild-type enzyme's activity, Dichlorprop” value (from here on “maximum activity as a percentage … Dichlorprop”) is reported as 100%; the “maximum activity as a percentage of the wild-type enzyme's activity, Fenoxaprop” value (“maximum activity as a percentage … Fenoxaprop” below) stood at 83%. Besides, in series [3], the “maximum activity as a percentage of the wild-type enzyme's activity, Fluazifop” value (“maximum activity as a percentage … Fluazifop” for short) is on record as 60%. In the series with F1 hybrid maize plants, the “average injury rating, V4 Growth Stage, 2x 2,4-D” value came to 3.8; the “average injury rating, V8 Growth Stage, 2x 2,4-D” value turned out to be 5.5; the “average injury rating, V4 Growth Stage, 4x 2,4-D” value is recorded as 6.3; the “average injury rating, V8 Growth Stage, 4x 2,4-D” value was found to be 5.5. For the same molecule, in the series with F1 hybrid maize plants, the “average injury rating, V4 Growth Stage, 8x 2,4-D” value amounted to 8.8; the “average injury rating, V8 Growth Stage, 8x 2,4-D” value is 11.3; the “average injury rating, V4 Growth Stage, 16x 2,4-D” value is 11.3; the “average injury rating, V8 Growth Stage, 16x 2,4-D” value is 13.8.

B2: MON-HT5: engineered oxygenase protein, amino acid sequence SEQ ID NO:28 (protein)
chain: MHAALTPLTNKYRFIDVQPLTGVLGAEITGVDLREPLDDSTWNEILDAFHTYQVIYFPGQAITNEQHIAFSRRFGPVDPVPLLKSIEGYPEVQMIRREANESGRVIGDDWHTDSTFLDAPPAAVVMRAIEVPEYGGDTGFLSMYSAWETLSPTMQATIEGLNVVHSATKVFGSLYQATNWRFSNTSVKVMDVDAGDRETVHPLVVTHPVTGRRALYCNQVYCQKIQGMTDAESKSLLQFLYEHATKFDFTCRVRWKKDQVLVWDNLCTMHRAVPDYAGKFRYLTRTTVAGDKPSR
Regarding B2, in series [1] (setting [4]), the “Vmax Quizalofop” value is on record as 0.57 (−0.03) umol herbicide product mg enzyme-1 min-1. The Km in series [1] (setting [5]) was 170 µM. Also, in series [1] (setting [6]), the “Km 2,4-D” value is on record as “NDB” and the “Vmax 2,4-D” value is reported as “NDB”. In addition, in series [2], the “T1/2, temperature where 50% of the protein was unfolded, Buffer plus Fe2+ and aKG” value was found to be 61 °C; the “T1/2, temperature where 50% of the protein was unfolded, Buffer” value was 60 °C. Moreover, in series [3], the “maximum activities for all four substrates compared with the wild-type enzyme” value is given as “lower than, or equal to”; the “maximum activity as a percentage … Haloxyfop” value is given as 100%; the “maximum activity as a percentage … Dichlorprop” value worked out at 36%; the “maximum activity as a percentage … Fenoxaprop” value turned out to be 92%. Besides, in series [3], the “maximum activity as a percentage … Fluazifop” value came to 46%. Further, in the series on F1 hybrid maize plants, the “average injury rating, V4 Growth Stage, 2x 2,4-D” value is 2.5; the “average injury rating, V8 Growth Stage, 2x 2,4-D” value came to 3.3; the “average injury rating, V4 Growth Stage, 4x 2,4-D” value was determined as 2.5; the “average injury rating, V8 Growth Stage, 4x 2,4-D” value is 4.0. Also, in the series with F1 hybrid maize plants, the “average injury rating, V4 Growth Stage, 8x 2,4-D” value is on record as 7.5; the “average injury rating, V8 Growth Stage, 8x 2,4-D” value came out at 10.0; the “average injury rating, V4 Growth Stage, 16x 2,4-D” value is on record as 17.5; the “average injury rating, V8 Growth Stage, 16x 2,4-D” value was found to be 21.3.

B3: MON-HT6: engineered oxygenase protein, amino acid sequence SEQ ID NO:31 (protein)
chain: MHAALSPLSQKYRFIDVQPLTGVLGAEITGVTLREPLDDNTWNEILDAFHTYQVIYFPGQAITNEQHIAFSRRFGPVDPVPLLKSIEGYPEVQMIRREANESGRVIGDDWHTDSTFLDAPPAAVVMYAREVPPYGGDTGFLSMYSAWDTLSDTMKATIEGLNVVHSATRVFGSLYQAQNRRFSNTSVKVMDVDAGDRETVHPLVVSHPVTGRRALYCNQVYCQRIEGMTDAESKPLLQFLYEHATRFDFTCRVRWKKDQVLVWDNLCTMHRAVPDYAGKFRYLTRTTVAGDKPSR
In the case of B3, the “Vmax Quizalofop” value in series [1] (setting [4]) is on record as 0.39 (−0.03) umol herbicide product mg enzyme-1 min-1. In addition, the Km in series [1] (setting [5]) turned out to be 100 µM. In addition, in series [1] (setting [6]), the “Km 2,4-D” value is reported as “NDB” and the “Vmax 2,4-D” value is “NDB”. Also, in series [2], the “T1/2, temperature where 50% of the protein was unfolded, Buffer plus Fe2+ and aKG” value was determined as 44 °C; the “T1/2, temperature where 50% of the protein was unfolded, Buffer” value is 44 °C. Further, in series [3], the “maximum activity as a percentage … Haloxyfop” value came out at 75%; the “maximum activity as a percentage … Dichlorprop” value is listed as 37%; the “maximum activity as a percentage … Fluazifop” value turned out to be 47%. In the series on F1 hybrid maize plants, the “average injury rating, V4 Growth Stage, 2x 2,4-D” value came out at 0.0; the “average injury rating, V8 Growth Stage, 2x 2,4-D” value came to 6.3; the “average injury rating, V4 Growth Stage, 4x 2,4-D” value is recorded as 2.0; the “average injury rating, V8 Growth Stage, 4x 2,4-D” value stood at 4.3. In the series with F1 hybrid maize plants, the “average injury rating, V4 Growth Stage, 8x 2,4-D” value turned out to be 5.8; the “average injury rating, V8 Growth Stage, 8x 2,4-D” value was 11.3; the “average injury rating, V4 Growth Stage, 16x 2,4-D” value stood at 8.8; the “average injury rating, V8 Growth Stage, 16x 2,4-D” value amounted to 12.5.

B4: MON-HT4: engineered oxygenase protein, amino acid sequence SEQ ID NO:25 (protein)
chain: MHAALTPLTNKYRFIDVQPLTGVLGAEITGVDLREPLDDSTWNEILDAFHTYQVIYFPGQAITNEQHIAFSRRFGPVDPVPLLKSIEGYPEVQMIRREANESGRVIGDDWHTDSTFLDAPPAAVVMYAREVPPYGGDTGFLSMYTAWETLSPTMQATIEGLNVVHSATRVFGSLYQAQNRRYSNTSVKVMDVDAGDRETVHPLVVSHPVTGRRALYCNQVYCQRIEGMTDAESKSLLQFLYEHATKFDFTCRVRWKKDQVLVWDNLCTMHRAVPDYAGKFRYLTRTTVAGDKPSR
For the molecule B4, the “Vmax Quizalofop” value in series [1] (setting [4]) is 0.30 (−0.02) umol herbicide product mg enzyme-1 min-1. Moreover, the Km in series [1] (setting [5]) worked out at 240 µM. In addition, in series [1] (setting [6]), the “Km 2,4-D” value is “NDB” and the “Vmax 2,4-D” value is “NDB”. Further, in series [2], the “T1/2, temperature where 50% of the protein was unfolded, Buffer plus Fe2+ and aKG” value came to 44 °C; the “T1/2, temperature where 50% of the protein was unfolded, Buffer” value was 43 °C. Further, in series [3], the “maximum activities for all four substrates compared with the wild-type enzyme” value is reported as “lower than, or equal to”; the “maximum activity as a percentage … Haloxyfop” value is 49%; the “maximum activity as a percentage … Dichlorprop” value is listed as 39%; the “maximum activity as a percentage … Fenoxaprop” value turned out to be 53%. In series [3], the “maximum activity as a percentage … Fluazifop” value was determined as 52%. For the same molecule, in the series with F1 hybrid maize plants, the “average injury rating, V4 Growth Stage, 2x 2,4-D” value was determined as 0.0; the “average injury rating, V8 Growth Stage, 2x 2,4-D” value stood at 2.0; the “average injury rating, V4 Growth Stage, 4x 2,4-D” value is 1.3; the “average injury rating, V8 Growth Stage, 4x 2,4-D” value is on record as 8.8. In the series on F1 hybrid maize plants, the “average injury rating, V4 Growth Stage, 8x 2,4-D” value is 8.8; the “average injury rating, V8 Growth Stage, 8x 2,4-D” value amounted to 12.5; the “average injury rating, V4 Growth Stage, 16x 2,4-D” value came to 18.8; the “average injury rating, V8 Growth Stage, 16x 2,4-D” value was 21.3.

For orientation: Km means the substrate concentration at which the rate is half of its maximum.
